From patent US20100092455A1 (PIERRE FABRE MEDICAMENT, published 2010)

Columns and labels:
[1] = biological target: T1, recombinant human JAM-A/Fc (R&D Systems ref. 1103-JM) (human, UniProt Q9Y624 28-238); assay: SPR (BIAcore X), KD=kd/ka
T1 construct: also called hJAM-A/Fc; Human JAM-1-Fc
T1 sequence: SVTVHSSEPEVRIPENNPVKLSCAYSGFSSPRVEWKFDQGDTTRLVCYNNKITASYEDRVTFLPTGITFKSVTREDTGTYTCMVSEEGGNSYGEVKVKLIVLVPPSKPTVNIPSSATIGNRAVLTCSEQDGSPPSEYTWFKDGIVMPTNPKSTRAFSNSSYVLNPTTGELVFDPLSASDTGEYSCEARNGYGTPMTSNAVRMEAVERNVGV
Description: (§1) FIG. 14 is sensorgrams obtained with a double reference, (Fc2-Fc1)6F4(Fc2-Fc1)HBS-EP. The curve is fitted using a Langmuir A+B binding model.
(§2) Murine monoclonal 6F4 antibody: 1.3 mg/ml [0351] […] Running buffer: HBS-EP (BIAcore) [0354] Binding kit: “Amine” (BIAcore) [0355] Binding buffer: Acetate pH 5.0 (BIAcore) [0356] Capturing antibody: goat IgG Fc anti-human (=GAH, goat anti-human) (Bioscience) [0357] Regeneration buffer: Glycine, HCl pH 1.5 for 30 seconds (BIAcore).

[2] = biological target: T2, natural human JAM-A protein (F11R / junctional adhesion molecule A), isoform a (human, UniProt Q9Y624 28-299); assay: flow cytometry, labeling of MCF-7 cells with 6F4
T2 construct: Natural protein; Mass spectrometry matched it to JAM-A isoform a; also called F11 receptor; JAM-1
T2 sequence: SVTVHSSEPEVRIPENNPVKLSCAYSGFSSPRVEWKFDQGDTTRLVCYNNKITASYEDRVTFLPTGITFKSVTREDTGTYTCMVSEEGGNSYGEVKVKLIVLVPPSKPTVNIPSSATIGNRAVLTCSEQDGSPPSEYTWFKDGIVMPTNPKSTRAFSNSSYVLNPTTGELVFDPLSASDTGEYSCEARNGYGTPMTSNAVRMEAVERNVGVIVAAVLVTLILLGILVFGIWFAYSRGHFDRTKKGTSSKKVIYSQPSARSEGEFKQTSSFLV

[3] = biological target: T1, recombinant human JAM-A/Fc (R&D Systems …); assay: SPR (BIAcore X), double reference, Langmuir A+B binding model, 25° C.
Description: as §1, §2

[4] = biological target: T3, recombinant human JAM-B/Fc (R&D Systems ref. 1074-VJ) (human, UniProt P57087 29-236, limits assumed); assay: western blot, non-reducing, revealed with 6F4; 250, 25 and 10 ng deposited
T3 construct: Bought product; also called hJAM-B/Fc; human form of JAM-B; not shown: Fc part of the bought fusion protein
T3 sequence (looked up): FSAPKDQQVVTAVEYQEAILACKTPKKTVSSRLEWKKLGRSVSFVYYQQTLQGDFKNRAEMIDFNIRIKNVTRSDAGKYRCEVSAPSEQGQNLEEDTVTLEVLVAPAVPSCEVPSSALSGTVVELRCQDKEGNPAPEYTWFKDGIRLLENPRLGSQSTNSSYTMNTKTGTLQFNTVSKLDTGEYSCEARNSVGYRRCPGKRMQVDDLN

[5] = biological target: T4, recombinant human JAM-C/Fc (R&D Systems ref. 1189-J3) (human, UniProt Q9BX67 32-241, limits assumed); assay: as above
T4 construct: Bought product; also called hJAM-C/Fc; human form of JAM-C; not shown: Fc part of the bought fusion protein
T4 sequence (looked up): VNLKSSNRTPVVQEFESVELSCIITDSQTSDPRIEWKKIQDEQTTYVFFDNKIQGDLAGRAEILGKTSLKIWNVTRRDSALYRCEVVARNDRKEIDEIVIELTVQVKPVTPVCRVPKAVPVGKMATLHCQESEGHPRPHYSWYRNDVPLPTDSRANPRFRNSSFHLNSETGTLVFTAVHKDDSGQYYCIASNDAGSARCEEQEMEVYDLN

[6] = biological target: T5, recombinant murine JAM-A/Fc (R&D Systems ref. 1077-JM) (murine, UniProt O88792 27-238); assay: as above
T5 construct: extracellular domain; Bought product; also called mJAM-A/Fc; Mouse JAM-1-Fc; not shown: Fc part of the bought fusion protein
T5 sequence (looked up): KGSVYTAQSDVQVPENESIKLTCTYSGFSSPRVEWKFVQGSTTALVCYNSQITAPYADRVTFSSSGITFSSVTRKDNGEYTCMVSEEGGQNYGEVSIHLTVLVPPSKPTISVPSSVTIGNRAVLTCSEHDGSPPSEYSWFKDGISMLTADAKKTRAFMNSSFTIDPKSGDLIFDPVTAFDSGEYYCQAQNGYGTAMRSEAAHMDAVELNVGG

B1: murine monoclonal 6F4 antibody (antibody, V domains shown)
VH: EIQLQQSGPELVKPGASVKVSCKASGYSFTDYSMYWVKQSHGKSLEWIGYIDPYNGGTRYNQKFKGKATLTVDKSSSTAFMHLNSLTSEDSAVYYCARQTDYFDYWGQGTTLTVSS
VL: DIQMTQSPSSLSASLGGKVTITCKASQDINNYIAWYQHKPGKGPRLLIHYTSTLQAGIPSRFSGSGSGRDYSFSISNLEPEDIGTYYCLQYDNLWTFGGGTKLEIKR
notes: also called 6F4 MAb; Mab 6F4; copies: 2 + 2
Kd [1]: 0.022 nM | EC50 (read off the curve) [2]: ~0.3 µg/mL | koff [3]: 2.5e-07 s⁻¹ | kon [3]: 138000 M⁻¹ s⁻¹ | binding result [4]: no binding (tested: 250 ng) | binding result [5]: no binding (tested: 250 ng) | binding result [6]: no binding (tested: 250 ng)
